Columns and labels:
FL-MRE11 = target: T1, FL-MRE11 (human, UniProt P49959 1-708); experiment: fluorescence polarization; no metal listed in buffer; apparent Kd, n=1; 10 mM Tris pH 8.0, 25 mM NaCl, 0.1% Tween20, 2 mM DTT; 10 nM DNA; temperature not stated, measured immediately; details: protein: recombinant; tags: His tag (pNIC28-Bsa4), TEV protease treated; chain copies: 2; label: 5' FITC on TP423; 34 bp duplex (S1[1-34] with S2[1-34]); 3' overhangs 16 nt (S1) and 15 nt (S2)
T1 sequence: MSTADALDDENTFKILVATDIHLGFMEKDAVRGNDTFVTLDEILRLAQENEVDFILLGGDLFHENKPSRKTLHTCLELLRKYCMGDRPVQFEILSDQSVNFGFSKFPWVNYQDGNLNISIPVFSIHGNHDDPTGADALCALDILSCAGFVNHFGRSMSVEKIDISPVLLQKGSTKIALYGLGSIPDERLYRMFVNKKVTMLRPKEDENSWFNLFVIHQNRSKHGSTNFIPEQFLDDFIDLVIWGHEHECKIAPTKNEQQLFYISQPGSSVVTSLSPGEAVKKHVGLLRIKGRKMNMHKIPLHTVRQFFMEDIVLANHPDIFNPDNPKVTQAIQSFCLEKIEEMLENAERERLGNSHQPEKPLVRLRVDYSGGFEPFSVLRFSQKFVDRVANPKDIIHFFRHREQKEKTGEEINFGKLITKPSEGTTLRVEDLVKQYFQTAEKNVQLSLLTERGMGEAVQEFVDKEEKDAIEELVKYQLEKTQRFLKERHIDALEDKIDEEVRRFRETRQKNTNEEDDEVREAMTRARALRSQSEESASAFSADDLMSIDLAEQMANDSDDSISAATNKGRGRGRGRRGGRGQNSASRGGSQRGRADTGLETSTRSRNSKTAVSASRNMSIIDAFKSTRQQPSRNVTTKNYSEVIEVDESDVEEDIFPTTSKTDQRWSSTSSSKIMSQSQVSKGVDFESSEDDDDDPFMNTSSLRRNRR

TR-MRE11 = target: T2, TR-MRE11 (human, UniProt P49959 1-568, del569-708); experiment: fluorescence polarization; no metal listed in buffer; apparent Kd, n=1; 7-fold lower affinity than FL; 10 mM Tris pH 8.0, 25 mM NaCl, 0.1% Tween20, 2 mM DTT; 10 nM DNA; temperature not stated, measured immediately; details: protein: recombinant; tags: His-SUMO tag removed by SUMO protease; chain copies: 2; label: 5' FITC on TP423; 34 bp duplex (S1[1-34] with S2[1-34]); 3' overhangs 16 nt (S1) and 15 nt (S2)
T2 sequence: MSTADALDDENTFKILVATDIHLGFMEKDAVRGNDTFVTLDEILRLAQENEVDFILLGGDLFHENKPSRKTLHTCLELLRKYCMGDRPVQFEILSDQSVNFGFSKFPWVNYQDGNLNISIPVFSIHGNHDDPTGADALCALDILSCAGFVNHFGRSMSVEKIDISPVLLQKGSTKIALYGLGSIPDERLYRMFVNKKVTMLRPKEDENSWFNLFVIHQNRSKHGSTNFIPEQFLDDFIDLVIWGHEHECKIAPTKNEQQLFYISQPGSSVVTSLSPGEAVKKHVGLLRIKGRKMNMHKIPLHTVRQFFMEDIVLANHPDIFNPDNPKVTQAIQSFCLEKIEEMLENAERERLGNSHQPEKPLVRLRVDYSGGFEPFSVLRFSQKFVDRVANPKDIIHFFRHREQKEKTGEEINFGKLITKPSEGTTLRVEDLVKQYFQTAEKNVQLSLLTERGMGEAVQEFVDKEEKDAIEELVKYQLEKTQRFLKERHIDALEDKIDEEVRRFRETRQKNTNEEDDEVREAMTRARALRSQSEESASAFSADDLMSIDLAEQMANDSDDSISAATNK

B1: TP423/TP424 3'-overhang duplex (dsDNA)
DNA 1: CTGCAGGGTTTTTGTTCCAGTCTGTAGCACTGTGTAAGACAGGCCAGATC
DNA 2: CACAGTGCTACAGACTGGAACAAAAACCCTGCAGTACTCTACTCATCTC
Work on B1 yielded a Kd (FL-MRE11) of 34.6 nM and a Kd (TR-MRE11) of 242 nM.

Source: publication PMC7870818, “SPRTN protease-cleaved MRE11 decreases DNA repair and radiosensitises cancer cells”
